Assay [1] has as its target bacterial chalcone isomerase (CHI) from Eubacterium ramulus, His33Ala variant (Eubacterium ramulus) (UniProt V9P0A9). Nature of the assay: crystal structure; hanging drop at 293 K, 6.8 mg/mL protein in 50 mM sodium phosphate pH 6.8; reservoir ammonium sulphate (1.8 M for CHI, 1.5 M for CHI_H33A), 0.2 M NaCl, 0.1 M HEPES pH 7.5; crystals soaked 10 min with 2.5 mM (+)-taxifolin; data at 100 K; hexamer seen in the asymmetric unit.

Assay [2] deals with bacterial chalcone isomerase (CHI) from Eubacterium ramulus (Eubacterium ramulus) (UniProt V9P0A9). The description is as above.

The term stoichiometry N denotes a count of units in the complex or per binding partner.

Turning to “bacterial chalcone isomerase (CHI) from Eubacterium ramulus, His33Ala variant (from UniProt V9P0A9 1-283) (enzyme)”, the stoichiometry N in assay [1] was found to be 6.
As for “bacterial chalcone isomerase (CHI) from Eubacterium ramulus (from UniProt V9P0A9 1-283) (enzyme)”, in assay [2], the stoichiometry N was 6.

For the origin of these results see PMC9694015.
